Data: publication PMC8387239, “Structural and functional characterization of the intracellular filament-forming nitrite oxidoreductase multiprotein complex” (Nature Microbiology, 2021)

Experiments:
[1] = biological target: T1, anammoxosomal tubules (NXR A, B, C and T subunits) (Candidatus Kuenenia stuttgartensis, UniProt Q1PZD8); assay: spectrophotometric, ferricyanide reduction at […] nm; type: biochemical; conditions: 2 mM sodium nitrite; 800 µM ferricyanide; 50 mM KPi, 150 mM NaCl, pH 7.25; 35 °C; without dodecyl maltoside
T1 construct: gene narG; native tubules purified from K. stuttgartiensis cells by size exclusion and sucrose density gradient; with nitrite oxidoreductase subunit B, iron-sulfur subunit (NarH-like); nitrite oxidoreductase subunit C, haem b-containing subunit; nitrite oxidoreductase tubule-inducing subunit T, monohaem cytochrome c

[2] = biological target: Broful_01488, NXR-T homologue from Brocadia fulgida, recombinant, N-terminal His-tag cleaved (Brocadia fulgida); assay: crystal structure; Broful_01488 after cleavage of the N-terminal His-tag; 0.02 M LiCl, 0.02 M glycine pH 10.0, 33% PEG 1000, 0.05 M MgCl2; 4.0-4.5 Å, partial model
[3] = biological target: NXR-T (Kustd1705), recombinant, as used for analytical ultracentrifugation (tagged version not stated) (Kuenenia stuttgartiensis); assay: AUC; sedimentation velocity and sedimentation equilibrium; 25 mM HEPES/KOH pH 7.5, 25 mM KCl; 25,000 or 30,000 r.p.m., 24 h, 20 °C; scans at 415 nm
[4] = biological target: NXR-T (Kustd1705), tubule-inducing NXR subunit, recombinant, N-terminal His-tag cleaved (Kuenenia stuttgartiensis); assay: cryo-EM structure; helical reconstruction of tubules reconstituted from KsNXR-ABC and Kustd1705, 5.8 Å after density modification
[5] = substrate: O=NO; assay: purified protein; type: biochemical, Candidatus Kuenenia stuttgartensis; conditions: 800 µM ferricyanide as electron acceptor, 50 mM KPi, 150 mM NaCl, pH 7.25, 35 °C
[6] = substrate: O=[N+]([O-])O; assay: purified protein; type: biochemical, Candidatus Kuenenia stuttgartensis; conditions: reduced methyl viologen as electron donor, 50 mM KPi, pH 7.2, 35 °C, anaerobic

T1 sequence (Q1PZD5 1-410 partner, one chain of several): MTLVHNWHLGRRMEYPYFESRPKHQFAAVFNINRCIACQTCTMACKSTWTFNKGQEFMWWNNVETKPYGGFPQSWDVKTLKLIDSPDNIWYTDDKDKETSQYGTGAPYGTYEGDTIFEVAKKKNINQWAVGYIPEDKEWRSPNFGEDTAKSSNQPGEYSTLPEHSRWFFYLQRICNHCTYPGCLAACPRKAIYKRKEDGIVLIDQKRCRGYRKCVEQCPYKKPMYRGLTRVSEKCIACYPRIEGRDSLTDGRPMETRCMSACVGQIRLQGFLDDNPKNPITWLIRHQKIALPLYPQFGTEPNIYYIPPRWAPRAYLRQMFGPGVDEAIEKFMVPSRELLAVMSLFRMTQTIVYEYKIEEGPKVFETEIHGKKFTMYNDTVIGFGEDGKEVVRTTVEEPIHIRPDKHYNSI
T1 sequence (Q1PZD4 29-322 partner, one chain of several): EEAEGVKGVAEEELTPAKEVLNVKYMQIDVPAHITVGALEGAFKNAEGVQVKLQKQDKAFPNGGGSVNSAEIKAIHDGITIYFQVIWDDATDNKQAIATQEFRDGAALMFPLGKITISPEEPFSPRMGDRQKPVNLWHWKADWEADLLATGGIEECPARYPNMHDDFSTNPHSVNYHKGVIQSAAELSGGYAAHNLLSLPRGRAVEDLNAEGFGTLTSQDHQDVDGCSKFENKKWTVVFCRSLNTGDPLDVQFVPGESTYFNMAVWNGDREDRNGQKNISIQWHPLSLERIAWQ
T1 sequence (A0A2C9CDL6 21-180 partner, one chain of several): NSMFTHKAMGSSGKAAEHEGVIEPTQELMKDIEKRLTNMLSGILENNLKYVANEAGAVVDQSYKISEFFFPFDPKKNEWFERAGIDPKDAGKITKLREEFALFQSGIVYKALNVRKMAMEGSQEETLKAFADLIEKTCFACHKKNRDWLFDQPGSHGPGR

Molecule: O=NO [nitrite]
- spectrophotometric, ferricyanide reduction at 420 nm [1]: can be disassembled by adding the detergent dodecyl maltoside, show nitrite oxidation activity

Molecule: Broful_01488, NXR-T homologue from Brocadia fulgida, recombinant, N-terminal His-tag cleaved (natural protein)
- stoichiometry N [2]: 2

Molecule: NXR-T (Kustd1705), recombinant, as used for analytical ultracentrifugation (tagged version not stated) (natural protein)
- stoichiometry N [3]: 2

Molecule: NXR-T (Kustd1705), tubule-inducing NXR subunit, recombinant, N-terminal His-tag cleaved (natural protein)
- stoichiometry N [4]: 2

B1: KsNXR-ABC (Candidatus Kuenenia stuttgartensis) (protein)
chain: FRLLKPAVVVDNPLDTYPDRRWESVYRDQYQYDRTFTYCCSPNDTHACRIRAFVRNNVMMRVEQNYDHQNYSDLYGNKATRNWNPRMCLKGYTFHRRVYGPYRLRYPLIRKGWKRWADDGFPELTPENKTKYMFDNRGNDELLRASWDEAFTYASKGIIHITKKYSGPEGAQKLIDQGYPKEMVDRMQGAGTRTFKGRGGMGLLGVIGKYGMYRFNNCLAIVDAHNRGVGPDQALGGRNWSNYTWHGDQAPGHPFSHGLQTSDVDMNDVRFSKLLIQTGKNLIENKMPEAHWVTEVMERGGKIVVITPEYSPSAQKADYWIPIRNNTDTALFLGITKILIDNKWYDADYVKKFTDFPLLIRTDTLKRVSPKDIIPNYKLQDISDGPSYHIQGLKDEQREIIGDFVVWDAKSKGPKAITRDDVGETLVKKGIDPVLEGSFKLKTIDGKEIEVMTLLEMYKIHLRDYDIDSVVSMTNSPKDLIERLAKDIATIKPVAIHYGEGVNHYFHATLMNRSYYLPVMLTGNVGYFGSGSHTWAGNYKAGNFQASKWSGPGFYGWVAEDVFKPNLDPYASAKDLNIKGRALDEEVAYWNHSERPLIVNTPKYGRKVFTGKTHMPSPTKVLWFTNVNLINNAKHVYQMLKNVNPNIEQIMSTDIEITGSIEYADFAFPANSWVEFQEFEITNSCSNPFIQIWGKTGITPVYESKDDVKILAGMASKLGELLRDKRFEDNWKFAIEGRASVYINRLLDGSTTMKGYTCEDILNGKYGEPGVAMLLFRTYPRHPFWEQVHESLPFYTPTGRLQAYNDEPEIIEYGENFIVHREGPEATPYLPNAIVSTNPYIRPDDYGIPENAEYWEDRTVRNIKKSWEETKKTKNFLWEKGYHFYCVTPKSRHTVHSQWAVTDWNFIWNNNFGDPYRMDKRMPGVGEHQIHIHPQAARDLGIEDGDYVYVDANPADRPYEGWKPNDSFYKVSRLMLRAKYNPAYPYNCTMMKHSAWISSDKTVQAHETRPDGRALSPSGYQSSFRYGSQQSITRDWSMPMHQLDSLFHKAKIGMKFIFGFEADNHCINTVPKETLVKITKAENGGMGGKGVWDPVKTGYTAGNENDFMKKFLNGELIKVDA
notes: untagged; with nitrite oxidoreductase subunit B, iron-sulfur subunit (NarH-like); nitrite oxidoreductase subunit C, haem b-containing subunit
- Km [5]: 22 ± 5 µM
- Km [6]: 14 ± 1 µM
